Where two headings read alike, the source gives them in different places.
Experiments:
PCC7942_orf1594 protein = biological target: T1, PCC7942_orf1594 protein (Synechococcus elongatus, UniProt Q54765); test: Acyl-ACP or acyl-CoA reductase enzyme assay; type: biochemical, Synechococcus elongatus PCC7942; details: for reduction to fatty aldehyde: 10 μM enzyme, MgCl2, NADPH, 1 h at 37° C.
T1 construct: made in house; host or cells: E. coli BL21 (DE3)
T1 sequence (Q54765 1-341): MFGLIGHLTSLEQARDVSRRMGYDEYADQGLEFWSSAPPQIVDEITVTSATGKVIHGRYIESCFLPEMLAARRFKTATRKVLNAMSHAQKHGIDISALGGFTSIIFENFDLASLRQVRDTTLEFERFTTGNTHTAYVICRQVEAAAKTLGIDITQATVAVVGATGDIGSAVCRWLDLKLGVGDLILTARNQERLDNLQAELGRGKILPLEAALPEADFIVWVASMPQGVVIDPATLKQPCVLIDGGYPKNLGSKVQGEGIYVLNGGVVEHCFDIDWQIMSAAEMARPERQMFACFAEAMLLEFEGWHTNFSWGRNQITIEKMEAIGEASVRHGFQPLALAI
Method: The genomic DNA encoding S. elongatus […] orf1594 (SEQ ID NO:65) was cloned into the NcoI and XhoI sites of vector pET-28b under the control of the T7 promoter. The resulting PCC7942_orf1594 protein contained a C-terminal His-tag. An E. coli BL21 strain (DE3) (Invitrogen) was transformed with the plasmid and PCC7942_orf1594 protein was expressed and purified as described in Example 22. The protein solution was stored in the following buffer: 50 mM sodium phosphate, pH 7.5, 100 mM NaCl, 1 mM THP, 10% glycerol. Protein concentration was determined using the Bradford assay (Biorad). 2 mg/mL of PCC7942_orf1594 protein was obtained.
To test PCC7942_orf1594 protein for acyl-ACP or acyl-CoA reductase activity, the following enzyme assays were set-up. 100 μL reactions were set-up in 50 mM Tris-HCl buffer at pH 7.5 with the following components at their respective final concentrations: 10 μM of purified PCC7942_orf1594 protein, 0.01-1 mM acyl-CoA or acyl-ACP, 2 mM MgCl2, 0.2-2 mM NADPH. The reactions were incubated for 1 h at 37° C. and where stopped by adding 100 μL ethyl acetate (containing 5 mg/l 1-octadecene as internal standard). Samples were vortexed for 15 min and centrifuged at max speed for 3 min for phase separation. 80 μL of the top layer were transferred into GC glass vials and analyzed by GC/MS as described in Example 26. The amount of aldehyde formed was calculated based on the internal standard.
Next, the stereospecific hydride transfer from NADPH to a fatty aldehyde catalyzed by PCC7942_orf1594 was examined. Deutero-NADPH was prepared according to the following protocol. 5 mg of NADP and 3.6 mg of D-glucose-1-d was added to 2.5 mL of 50 mM sodium phosphate buffer (pH 7.0). Enzymatic production of labeled NADPH was initiated by the addition of 5 units of glucose dehydrogenase from either Bacillus megaterium (USB Corporation) for the production of R-(4-^2H)NADPH or Thermoplasma acidophilum (Sigma) for the production of S-(4-^2H)NADPH. The reaction was incubated for 15 min at 37° C., centrifuge-filtered using a 10 KDa MWCO Amicon Ultra centrifuge filter (Millipore), flash frozen on dry ice, and stored at −80° C.
The in vitro assay reaction contained 50 mM Tris-HCl (pH 7.5), 10 μM of purified PCC7942_orf1594 protein, 1 mM octadecanoyl-CoA, 2 mM MgCl2, and 50 μL deutero-NADPH (prepared as described above) in a total volume of 100 μL. After a 1 h incubation, the product of the enzymatic reaction was extracted and analyzed as described above. The resulting fatty aldehyde detected by GC/MS was octadecanal (see FIG. 34). Because hydride transfer from NADPH is stereospecific, both R-(4-^2H)NADPH and S-(4-^2H)NADPH were synthesized.

E. coli MG1655 = test: Coexpression of decarbonylase and aldehyde-generating enzyme in E. coli, GC-MS of hydrocarbons; type: cell-based; details: for Production of Alkanes and Alkenes: alkane/alkene biosynthetic polypeptide coexpressed in E. coli with the aldehyde biosynthetic polypeptide of the same table row; for fatty aldehyde decarbonylase activity in E. coli: cotransformed with S. elongatus PCC7942_1594 into E. coli MG1655, M9 minimal media, 37° C.
Excerpt: Seven cyanobacteria, whose complete genome sequences are publicly available, were selected for verification and/or detection of alkane biosynthesis: Synechococcus elongatus PCC7942, Synechococcus elongatus PCC6301, Anabaena variabilis ATCC29413, Synechocystis sp. PCC6803, Nostoc punctiforme PCC73102, Gloeobacter violaceus ATCC 29082, and Prochlorococcus marinus CCMP1986. Only the first three cyanobacterial strains from this list had previously been reported to contain alkanes (Han et al., J. Am. Chem. Soc. 91:5156-5159 (1969); Fehler et al., Biochem. 9:418-422 (1970)). The strains were grown photoautotrophically in shake flasks in 100 mL of the appropriate media (listed in Table 8) for 3-7 days at 30° C. at a light intensity of approximately 3,500 lux. Cells were extracted for alkane detection as follows: cells from 1 mL culture volume were centrifuged for 1 min at 13,000 rpm, the cell pellets were resuspended in methanol, vortexed for 1 min and then sonicated for 30 min. After centrifugation for 3 min at 13,000 rpm, the supernatants were transferred to fresh vials and analyzed by GC-MS. The samples were analyzed on either 30 m DP-5 capillary column (0.25 mm internal diameter) or a 30 m high temperature DP-5 capillary column (0.25 mm internal diameter) using the following method.
After a 1 μL splitless injection (inlet temperature held at 300° C.) onto the GC/MS column, the oven was held at 100° C. for 3 mins. The temperature was ramped up to 320° C. at a rate of 20° C./min. The oven was held at 320° C. for an additional 5 min. The flow rate of the carrier gas helium was 1.3 mL/min. The MS quadrapole scanned from 50 to 550 m/z. Retention times and fragmentation patterns of product peaks were compared with authentic references to confirm peak identity.
The genomic DNA encoding Synechococcus elongatus PCC7942 orf1594 (YP_400611; putative aldehyde-generating enzyme) (SEQ ID NO:65) was amplified and cloned into the NcoI and EcoRI sites of vector OP-80 (pCL1920 derivative) under the control of the Ptrc promoter. The resulting construct (“OP80-PCC7942_1594”) was transformed into E. coli MG1655 and the cells were grown at 37° C. in M9 minimal media with 1% (w/v) glucose as carbon source and supplemented with 100 μg/mL spectinomycin. When the culture reached OD600 of 0.8-1.0, it was induced with 1 mM IPTG and cells were grown for an additional 18-20 h at 37° C. Cells from 0.5 mL of culture were extracted with 0.5 mL of ethyl acetate. After sonication for 60 min, the sample was centrifuged at 15,000 rpm for 5 min. The solvent layer was analyzed by GC-MS as described in Example 1.
The genomic DNA encoding Synechococcus elongatus PCC7942 orf1593 (YP_400610; putative decarbonylase) (SEQ ID NO:1) was amplified and cloned into the NdeI and XhoI sites of vector OP-183 (pACYC derivative) under the control of the Ptrc promoter. The resulting construct was cotransformed with OP80-PCC7942_1594 into E. coli MG1655 and the cells were grown at 37° C. in M9 minimal media supplemented with 100 μg/mL spectinomycin and 100 μg/mL carbenicillin. The cells were cultured and extracted as in Example 3 and analyzed by GC-MS as described in Example 1. […]

[1] = test system: E. coli MG1655 ΔfadD lacZ::Ptrc-′tesA; test: Decarbonylase expression in fatty aldehyde-producing E. coli strain expressing MSMEG_5739; type: cell-based; details: coexpressed with M. smegmatis carboxylic acid reductase MSMEG_5739
[2] = in the presence of 2 mM NADPH, read-out: Km for the reduction

octadecenoyl-CoA was tested, and the “reduction to fatty aldehyde” value (PCC7942_orf1594 protein) was “able to reduce” and the Km (PCC7942_orf1594 protein; [2]) was 82 ± 22 µM.

NADPH showed a Km (PCC7942_orf1594 protein; in the presence of 0.5 mM octadecanoyl-CoA, read-out: Km value for NADPH) of 400 ± 80 µM.

In the case of `[2H]C1C=CN(C2OC(COP(=O)(O)OP(=O)(O)OCC3OC(n4cnc5c(N)ncnc54)C(OP(=O)(O)O)C3O)C(O)C2O)C=C1C(N)=O` (stereo not drawn) [S-(4-^2H)NADPH], the “stereospecific hydride transfer to fatty aldehyde” value (PCC7942_orf1594 protein; 1 mM octadecanoyl-CoA, deutero-NADPH, 1 h) is reported as “Octadecanal with a plus one unit mass was observed”.

With `CCCCCCCCCCCCCCCCCC(=O)SCCNC(=O)CCNC(=O)[C@H](O)C(C)(C)COP(=O)(O)OP(=O)(O)OC[C@H]1O[C@@H](n2cnc3c(N)ncnc32)[C@H](O)[C@@H]1OP(=O)(O)O` [octadecanoyl-CoA] the “reduction to fatty aldehyde” value (PCC7942_orf1594 protein) was “able to reduce”.

In the case of octadecenoyl-ACP, the “reduction to fatty aldehyde” value (PCC7942_orf1594 protein) is reported as “able to reduce” and the Km (PCC7942_orf1594 protein; [2]) is reported as 7.8 ± 2 µM.

`NC(=O)C1=CN([C@@H]2O[C@H](COP(=O)(O)OP(=O)(O)OC[C@H]3O[C@@H](n4cnc5c(N)ncnc54)[C@H](O)[C@@H]3O)[C@@H](O)[C@H]2O)C=CC1` [NADH] was tested, and the “support of reductase activity as electron donor” value (PCC7942_orf1594 protein; octadecanoyl-CoA, Mg2+) was “did not support reductase activity”.

B1: SEQ ID NO: 7: Nostoc sp. PCC7210 alr5283, putative decarbonylase (protein, listed as Nostoc sp.)
chain: MQQVAADLEIDFKSEKYKDAYSRINAIVIEGEQEAYENYIQLSQLLPDDKEDLIRLSKMESRHKKGFEACGRNLQVSPDMEFAKEFFAGLHGNFQKAAAEGKIVTCLLIQSLIIECFAIAAYNIYIPVADDFARKITEGVVKDEYSHLNFGEVWLQKNFAQSKAELEEANRHNLPIVWKMLNQVADDAAVLAMEKEALVEDFMIQYGEALSNIGFTTRDIMRMSAYGLTAA
B1 was tested, and the “Production of Alkanes and Alkenes” value (E. coli MG1655) was “yes”, the “fatty aldehyde decarbonylase activity in E. coli” value (E. coli MG1655) was “active fatty aldehyde decarbonylase” and the “conversion of fatty aldehydes provided by MSMEG_5739 to alkanes” value (“conversion of fatty aldehydes provided” for short) [1] was “converted fatty aldehydes provided by MSMEG_5739 to the corresponding alkanes”.

B2: SEQ ID NO: 9: Acaryochloris marina MBIC11017 AM1_4041, putative decarbonylase (protein, listed as Acaryochloris marina)
chain: MPQTQAISEIDFYSDTYKDAYSRIDGIVIEGEQEAHENYIRLGEMLPEHQDDFIRLSKMEARHKKGFEACGRNLKVTCDLDFARRFFSDLHKNFQDAAAEDKVPTCLVIQSLIIECFAIAAYNIYIPVADDFARKITESVVKDEYQHLNYGEEWLKAHFDDVKAEIQEANRKNLPIVWRMLNEVDKDAAVLGMEKEALVEDFMIQYGEALSNIGFSTGEIMRMSAYGLVAA
B2 was tested, and the “Production of Alkanes and Alkenes” value (E. coli MG1655) was “yes”, the “fatty aldehyde decarbonylase activity in E. coli” value (E. coli MG1655) was “active fatty aldehyde decarbonylase” and the “conversion of fatty aldehydes provided” value [1] was “converted fatty aldehydes provided by MSMEG_5739 to the corresponding alkanes”.

B3: SEQ ID NO: 15: Gloeobacter violaceus PCC7421 gll3146, putative decarbonylase (protein, listed as Gloeobacter violaceus)
chain: VNRTAPSSAALDYRSDTYRDAYSRINAIVLEGEREAHANYLTLAEMLPDHAEALKKLAAMENRHFKGFQSCARNLEVTPDDPFARAYFEQLDGNFQQAAAEGDLTTCMVIQALIIECFAIAAYNVYIPVADAFARKVTEGVVKDEYTHLNFGQQWLKERFVTVREGIERANAQNLPIVWRMLNAVEADTEVLQMDKEAIVEDFMIAYGEALGDIGFSMRDVMKMSARGLASAPRQ
B3 was tested, and the “Production of Alkanes and Alkenes” value (E. coli MG1655) was “yes”, the “fatty aldehyde decarbonylase activity in E. coli” value (E. coli MG1655) was “active fatty aldehyde decarbonylase” and the “conversion of fatty aldehydes provided” value [1] was “converted fatty aldehydes provided by MSMEG_5739 to the corresponding alkanes”.

B4: SEQ ID NO: 5: Nostoc punctiforme PCC73102 Npun02004178, putative decarbonylase (protein)
chain: MQQLTDQSKELDFKSETYKDAYSRINAIVIEGEQEAHENYITLAQLLPESHDELIRLSKMESRHKKGFEACGRNLAVTPDLQFAKEFFSGLHQNFQTAAAEGKVVTCLLIQSLIIECFAIAAYNIYIPVADDFARKITEGVVKEEYSHLNFGEVWLKEHFAESKAELELANRQNLPIVWKMLNQVEGDAHTMAMEKDALVEDFMIQYGEALSNIGFSTRDIMRLSAYGLIGA
modifications: Nostoc punctiforme
notes: Nostoc punctiforme PCC73102 Npun02004178, putative decarbonylase
For B4, the “Production of Alkanes and Alkenes” value (E. coli MG1655) was “yes”, the “fatty aldehyde decarbonylase activity in E. coli” value (E. coli MG1655) was “active fatty aldehyde decarbonylase” and the “conversion of fatty aldehydes provided” value [1] was “converts tetradecanal, hexadecenal and hexadecanal provided by the carboxylic acid reductase MSMEG_5739 to tridecane, pentadecene and pentadecane”.

From patent publication US9481899B2, “Methods and compositions for producing hydrocarbons” (priority 2008, dated 2016)
